Patent publication US20160136236A1

Key:
[1] = biological target: wild type (WT) human low density lipoprotein receptor (LDLR) (human) (UniProt P01130); experiment: flow cytometry competition; 0.5 ug/mL LDL-BODIPY with 100 ug/mL unlabeled LDL on HEK293 cells transfected with LDLR mRNA
[2] = biological target: wild type (WT) human low density lipoprotein receptor (LDLR) (human) (UniProt P01130); experiment: flow cytometry competition; 0.5 ug/mL LDL-BODIPY with 0 ug/mL unlabeled LDL on HEK293 cells transfected with LDLR mRNA
[3] = biological target: wild type (WT) human low density lipoprotein receptor (LDLR) (human) (UniProt P01130); experiment: flow cytometry competition; 0.5 ug/mL LDL-BODIPY with 0.01 ug/mL unlabeled LDL on HEK293 cells transfected with LDLR mRNA
[4] = biological target: wild type (WT) human low density lipoprotein receptor (LDLR) (human) (UniProt P01130); experiment: flow cytometry competition; 0.5 ug/mL LDL-BODIPY with 10 ug/mL unlabeled LDL on HEK293 cells transfected with LDLR mRNA
[5] = biological target: wild type (WT) human low density lipoprotein receptor (LDLR) (human) (UniProt P01130); experiment: flow cytometry competition; 0.5 ug/mL LDL-BODIPY with 0.5 ug/mL unlabeled LDL on HEK293 cells transfected with LDLR mRNA
[6] = biological target: wild type (WT) human low density lipoprotein receptor (LDLR) (human) (UniProt P01130); experiment: flow cytometry competition; 0.5 ug/mL LDL-BODIPY with 0.1 ug/mL unlabeled LDL on HEK293 cells transfected with LDLR mRNA
[7] = biological target: wild type (WT) human low density lipoprotein receptor (LDLR) (human) (UniProt P01130); experiment: flow cytometry competition; 0.5 ug/mL LDL-BODIPY with 500 ug/mL unlabeled LDL on HEK293 cells transfected with LDLR mRNA
[8] = biological target: wild type (WT) human low density lipoprotein receptor (LDLR) (human) (UniProt P01130); experiment: flow cytometry competition; 0.5 ug/mL LDL-BODIPY with 1 ug/mL unlabeled LDL on HEK293 cells transfected with LDLR mRNA

Sequence of wild type (WT) human low density lipoprotein receptor (LDLR) (human) (P01130 22-860 limits assumed): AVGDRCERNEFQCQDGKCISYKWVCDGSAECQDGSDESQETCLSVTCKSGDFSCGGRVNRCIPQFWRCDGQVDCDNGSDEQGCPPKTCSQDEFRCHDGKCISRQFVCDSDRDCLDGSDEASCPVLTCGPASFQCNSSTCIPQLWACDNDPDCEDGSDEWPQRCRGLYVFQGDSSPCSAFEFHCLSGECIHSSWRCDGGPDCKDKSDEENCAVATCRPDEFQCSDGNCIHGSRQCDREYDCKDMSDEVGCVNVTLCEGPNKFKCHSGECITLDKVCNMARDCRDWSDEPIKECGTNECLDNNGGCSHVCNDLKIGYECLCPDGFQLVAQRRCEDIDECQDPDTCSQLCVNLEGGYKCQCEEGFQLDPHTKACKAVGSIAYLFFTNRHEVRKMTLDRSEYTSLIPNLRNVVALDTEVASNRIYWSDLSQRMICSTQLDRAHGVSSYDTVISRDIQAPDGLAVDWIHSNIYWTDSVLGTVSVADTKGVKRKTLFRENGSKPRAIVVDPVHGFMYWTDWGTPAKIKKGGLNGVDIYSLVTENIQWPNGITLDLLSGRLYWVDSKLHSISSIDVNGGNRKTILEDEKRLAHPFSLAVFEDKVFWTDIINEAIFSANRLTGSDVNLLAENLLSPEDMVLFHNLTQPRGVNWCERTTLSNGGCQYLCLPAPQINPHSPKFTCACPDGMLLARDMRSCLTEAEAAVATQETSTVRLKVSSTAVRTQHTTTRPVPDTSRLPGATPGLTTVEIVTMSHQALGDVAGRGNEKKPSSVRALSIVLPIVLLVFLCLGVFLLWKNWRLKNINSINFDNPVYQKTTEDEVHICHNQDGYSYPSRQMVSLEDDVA

Work on “unlabeled LDL (low density lipoprotein), P04114 28-4563” yielded a Labeled cells detected (%) [1] of 3.2%, a Labeled cells detected (%) [2] of 100% and a Labeled cells detected (%) [3] of 97.7%. It also gave a Labeled cells detected (%) [4] of 48.4%, a Labeled cells detected (%) [5] of 64.1% and a Labeled cells detected (%) [6] of 59%. It also gave a Labeled cells detected (%) [7] of 0.9% and a Labeled cells detected (%) [8] of 76%.
